The values below come from publication PMC13397619.

The chains are these.
B1: NLV3 TCR beta chain (CDR3β only) (parent)
chain: ASSPTGGSPSPLH

This assay covers variants of B1. The assay is described as follows: T-Switch: Jurkat TCRβ−/− cells expressing a CDR3 saturation-mutagenesis library, stained with two peptide-HLA-A*02:01 tetramers (original and novel peptide) plus anti-CD3, FACS-sorted into four gates, gDNA sequenced. As to conditions: tetramers 1 µg/mL, 30 min on ice, SP, DP and SW gates expanded about 10 days between rounds ('two to three rounds of selection' in the Methods), unresolved parent, parent is a CDR3 fragment, scale: fold enrichment, numbering: sequential-on-construct, sequence starts at 1.

The mark [1] stands for this setting: with both tetramers (double-negative gate, binds neither): HLA-A*02:01 with … and with …, gate DN: OPPOSITE: higher = more of the variant in the gate that binds neither peptide = LESS binding (or no expression; inferred). Fold enrichment of the CDR3 variant in one FACS gate of a two-tetram.
The mark [2] stands for this setting: with both tetramers (double-positive gate): HLA-A*02:01 with … and with …, gate DP: higher = more of the variant in the gate that binds both peptides. Fold enrichment of the CDR3 variant in one FACS gate of a two-tetramer stain. SP/DP/SW gates were expanded and re-sorted bef.

As for […] (CDR3 as printed); G7M derived by comparing it with the table's wild-type CDR3 ASSPTGGSPSPLH, the enrichment by setting is: under setting [1], 0.978; under setting [2], 0.
[…] (CDR3 as printed); H13D derived by comparing it with the table's wild-type CDR3 ASSPTGGSPSPLH: the enrichment came to 0.745 under setting [1] and 0 under setting [2].
For […] (CDR3 as printed); G7Y derived by comparing it with the table's wild-type CDR3 ASSPTGGSPSPLH the same measures were 0.917 and 0.
For […] (CDR3 as printed); A1I derived by comparing it with the table's wild-type CDR3 ASSPTGGSPSPLH the same measures were 1.15 and 0.
For […] (CDR3 as printed); S3E derived by comparing it with the table's wild-type CDR3 ASSPTGGSPSPLH the same measures were 0.814 and 0.
Take […] (CDR3 as printed); P9M derived by comparing it with the table's wild-type CDR3 ASSPTGGSPSPLH: the enrichment runs as follows: under setting [1], 1.18; under setting [2], 0.
The matching figures for […] (CDR3 as printed); S2T derived by comparing it with the table's wild-type CDR3 ASSPTGGSPSPLH: 0.755 and 0.
On to […] (CDR3 as printed); A1N derived by comparing it with the table's wild-type CDR3 ASSPTGGSPSPLH, for which the enrichment was determined as 1.07 under setting [1] and 0 under setting [2].
The matching figures for […] (CDR3 as printed); S10N derived by comparing it with the table's wild-type CDR3 ASSPTGGSPSPLH: 1.13 and 0.
On to […] (CDR3 as printed); S8E derived by comparing it with the table's wild-type CDR3 ASSPTGGSPSPLH, for which the enrichment under setting [1] was 1.16 and the enrichment under setting [2] turned out to be 0.
For the variant […] (CDR3 as printed); A1R derived by comparing it with the table's wild-type CDR3 ASSPTGGSPSPLH, the enrichment under setting [1] turned out to be 0.65 and the enrichment under setting [2] was determined as 0.
The matching figures for […] (CDR3 as printed); A1P derived by comparing it with the table's wild-type CDR3 ASSPTGGSPSPLH: 1.02 and 0.
For […] (CDR3 as printed); P4L derived by comparing it with the table's wild-type CDR3 ASSPTGGSPSPLH, the enrichment reads like this: under setting [1], 0.459; under setting [2], 0.
Regarding […] (CDR3 as printed); P4K derived by comparing it with the table's wild-type CDR3 ASSPTGGSPSPLH, the enrichment runs as follows: under setting [1], 0.891; under setting [2], 0.
For […] (CDR3 as printed); S8T derived by comparing it with the table's wild-type CDR3 ASSPTGGSPSPLH the same measures were 1.42 and 0.
The matching figures for […] (CDR3 as printed); H13V derived by comparing it with the table's wild-type CDR3 ASSPTGGSPSPLH: 0.58 and 0.
For […] (CDR3 as printed); P4S derived by comparing it with the table's wild-type CDR3 ASSPTGGSPSPLH the same measures were 0.973 and 0.
For […] (CDR3 as printed); P11M derived by comparing it with the table's wild-type CDR3 ASSPTGGSPSPLH, the enrichment was 0.318 under setting [1] and 0 under setting [2].
The matching figures for […] (CDR3 as printed); S3D derived by comparing it with the table's wild-type CDR3 ASSPTGGSPSPLH: 0.675 and 0.
Regarding […] (CDR3 as printed); P4D derived by comparing it with the table's wild-type CDR3 ASSPTGGSPSPLH, the enrichment is 0.917 under setting [1] and 0 under setting [2].
For the variant […] (CDR3 as printed); S8M derived by comparing it with the table's wild-type CDR3 ASSPTGGSPSPLH, the enrichment under setting [1] worked out at 1.29 and the enrichment under setting [2] was determined as 0.
The matching figures for […] (CDR3 as printed); H13Y derived by comparing it with the table's wild-type CDR3 ASSPTGGSPSPLH: 0.87 and 0.
In the case of […] (CDR3 as printed); S8D derived by comparing it with the table's wild-type CDR3 ASSPTGGSPSPLH, the enrichment was determined as 0.969 under setting [1] and 0 under setting [2].
The matching figures for […] (CDR3 as printed); T5A derived by comparing it with the table's wild-type CDR3 ASSPTGGSPSPLH: 0.817 and 0.
With […] (CDR3 as printed); G7R derived by comparing it with the table's wild-type CDR3 ASSPTGGSPSPLH, the enrichment reads like this: under setting [1], 1.17; under setting [2], 0.
For […] (CDR3 as printed); P9T derived by comparing it with the table's wild-type CDR3 ASSPTGGSPSPLH the same measures were 1.11 and 0.
For […] (CDR3 as printed); G6Y derived by comparing it with the table's wild-type CDR3 ASSPTGGSPSPLH the same measures were 0.661 and 0.
The matching figures for […] (CDR3 as printed); G6A derived by comparing it with the table's wild-type CDR3 ASSPTGGSPSPLH: 0.582 and 0.
On to […] (CDR3 as printed); S10F derived by comparing it with the table's wild-type CDR3 ASSPTGGSPSPLH, for which the enrichment runs as follows: under setting [1], 1.25; under setting [2], 0.
The matching figures for […] (CDR3 as printed); P9K derived by comparing it with the table's wild-type CDR3 ASSPTGGSPSPLH: 0.805 and 0.
The matching figures for […] (CDR3 as printed); H13S derived by comparing it with the table's wild-type CDR3 ASSPTGGSPSPLH: 0.978 and 0.
The matching figures for […] (CDR3 as printed); S3T derived by comparing it with the table's wild-type CDR3 ASSPTGGSPSPLH: 0.779 and 0.
For […] (CDR3 as printed); S2V derived by comparing it with the table's wild-type CDR3 ASSPTGGSPSPLH, the enrichment came out at 0.992 under setting [1] and 0 under setting [2].
For […] (CDR3 as printed); S10D derived by comparing it with the table's wild-type CDR3 ASSPTGGSPSPLH the same measures were 0.754 and 0.
The matching figures for […] (CDR3 as printed); S10H derived by comparing it with the table's wild-type CDR3 ASSPTGGSPSPLH: 0.949 and 0.
The matching figures for […] (CDR3 as printed); P9I derived by comparing it with the table's wild-type CDR3 ASSPTGGSPSPLH: 1.11 and 0.
Take […] (CDR3 as printed); S10V derived by comparing it with the table's wild-type CDR3 ASSPTGGSPSPLH: the enrichment amounted to 0.96 under setting [1] and 0 under setting [2].
The matching figures for […] (CDR3 as printed); S10T derived by comparing it with the table's wild-type CDR3 ASSPTGGSPSPLH: 1.08 and 0.
As for […] (CDR3 as printed); A1V derived by comparing it with the table's wild-type CDR3 ASSPTGGSPSPLH, the enrichment was determined as 0.797 under setting [1] and 0 under setting [2].
Consider […] (CDR3 as printed); G7L derived by comparing it with the table's wild-type CDR3 ASSPTGGSPSPLH, for which the enrichment worked out at 1.32 under setting [1] and 0 under setting [2].
For […] (CDR3 as printed); T5M derived by comparing it with the table's wild-type CDR3 ASSPTGGSPSPLH the same measures were 0.479 and 0.
For […] (CDR3 as printed); T5I derived by comparing it with the table's wild-type CDR3 ASSPTGGSPSPLH the same measures were 0.355 and 0.
In the case of […] (CDR3 as printed); S2F derived by comparing it with the table's wild-type CDR3 ASSPTGGSPSPLH, the enrichment was found to be 0.437 under setting [1] and 0 under setting [2].
The matching figures for […] (CDR3 as printed); P4R derived by comparing it with the table's wild-type CDR3 ASSPTGGSPSPLH: 0.618 and 0.
For […] (CDR3 as printed); G6T derived by comparing it with the table's wild-type CDR3 ASSPTGGSPSPLH the same measures were 1.01 and 0.
For […] (CDR3 as printed); P11F derived by comparing it with the table's wild-type CDR3 ASSPTGGSPSPLH the same measures were 0.728 and 0.
On to […] (CDR3 as printed); S3A derived by comparing it with the table's wild-type CDR3 ASSPTGGSPSPLH, for which the enrichment under setting [1] is 0.616 and the enrichment under setting [2] is 0.
In the case of […] (CDR3 as printed); S8N derived by comparing it with the table's wild-type CDR3 ASSPTGGSPSPLH, the enrichment was found to be 1.07 under setting [1] and 0 under setting [2].
The matching figures for […] (CDR3 as printed); G7N derived by comparing it with the table's wild-type CDR3 ASSPTGGSPSPLH: 0.87 and 0.
The matching figures for […] (CDR3 as printed); G6M derived by comparing it with the table's wild-type CDR3 ASSPTGGSPSPLH: 0.906 and 0.
The matching figures for […] (CDR3 as printed); H13W derived by comparing it with the table's wild-type CDR3 ASSPTGGSPSPLH: 0.345 and 0.
For […] (CDR3 as printed); L12D derived by comparing it with the table's wild-type CDR3 ASSPTGGSPSPLH, the enrichment amounted to 0.327 under setting [1] and 0 under setting [2].
For […] (CDR3 as printed); S8G derived by comparing it with the table's wild-type CDR3 ASSPTGGSPSPLH the same measures were 0.725 and 0.
For […] (CDR3 as printed); S10M derived by comparing it with the table's wild-type CDR3 ASSPTGGSPSPLH the same measures were 0.53 and 0.
The matching figures for […] (CDR3 as printed); S10K derived by comparing it with the table's wild-type CDR3 ASSPTGGSPSPLH: 1.05 and 0.
As to […] (CDR3 as printed); H13R derived by comparing it with the table's wild-type CDR3 ASSPTGGSPSPLH, the enrichment by setting is: under setting [1], 0.602; under setting [2], 0.
Regarding […] (CDR3 as printed); P9H derived by comparing it with the table's wild-type CDR3 ASSPTGGSPSPLH, the enrichment is, setting by setting: under setting [1], 0.681; under setting [2], 0.
